Assay results reported in US20130281317A1 (ALLBERT EINSTEIN COLLEGE OF MEDICINE OF YESHIVA UNIVERSITY, published 2013).

Molecular target: bovine serum albumin (BSA) (bovine, UniProt P02769 25-607)
Test: phage ELISA, coated wells
Procedure: Wells of Costar EIA/RIA high-binding plates were coated with ˜400-600 μg of antigen per well in phosphate-buffered saline (PBS) pH 7.0 at room temperature for 1 hr. The well solutions were decanted, and unbound well sites were blocked with PBS-T/0.5% (w/v) BSA for 1 hr. The wells were washed with PBS-T, phage solutions added and allowed to bind for 30 mins The phage solutions were decanted, the wells washed 5-7 times with PBS-T. Next, a solution containing 1:2500 dilution of anti-M13/HRP conjugate (GE Healthcare, Piscataway, N.J.) was added and allowed to bind for 30 mins. The wells were washed with PBS-T ˜5-7 times and developed using 3,3′,5,5′-tetramethylbezidine (TMB) substrate (Sigma). The ELISA signal was quantified either by direct measurement of blue color absorbance (OD650) or by quenching with sulfuric acid after 10-15 mins and determining the OD at 450 nm.

Chain of bovine serum albumin (BSA) (P02769 25-607 limits assumed): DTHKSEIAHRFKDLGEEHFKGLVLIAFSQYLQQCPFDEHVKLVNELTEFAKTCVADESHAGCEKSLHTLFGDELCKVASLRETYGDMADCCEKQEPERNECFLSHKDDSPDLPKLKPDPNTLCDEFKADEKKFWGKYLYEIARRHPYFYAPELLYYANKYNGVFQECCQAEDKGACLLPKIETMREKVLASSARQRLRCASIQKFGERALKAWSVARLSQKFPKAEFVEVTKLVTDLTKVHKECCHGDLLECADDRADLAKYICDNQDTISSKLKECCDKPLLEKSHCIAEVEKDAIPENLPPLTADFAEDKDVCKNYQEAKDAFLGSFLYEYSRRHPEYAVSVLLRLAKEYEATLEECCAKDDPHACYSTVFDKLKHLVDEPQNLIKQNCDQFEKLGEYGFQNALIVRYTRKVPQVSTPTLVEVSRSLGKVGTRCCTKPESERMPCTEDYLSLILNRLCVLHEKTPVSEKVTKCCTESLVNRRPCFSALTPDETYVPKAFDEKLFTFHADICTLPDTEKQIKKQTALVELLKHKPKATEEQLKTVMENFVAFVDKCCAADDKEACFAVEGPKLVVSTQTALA

B1: 2G12 (Fab)2 fragment displayed bivalently on M13 phage from p2G12-Fab2zip (WT) (Fab, V domains shown, not shown: a dimerising Fc or GST; large carriers)
VH: EVQLVESGGGLVKAGGSLILSCGVSNFRISAHTMNWVRRVPGGGLEWVASISTSSTYRDYADAVKGRFTVSRDDLEDFVYLQMHKMRVEDTAIYYCARKGSDRLSDNDPFDAWGPGTVVTVSP
VL: VVMTQSPSTLSASVGDTITITCRASQSIETWLAWYQQKPGKAPKLLIYKASTLKTGVPSRFSGSGSGTEFTLTISGLQFDDFATYHCQHYAGYSATFGQGTRVEIKR
notes: also called 2G12-Fab-biv phage; WT 2G12 clone
  binding result: no binding
